The values below come from patent US8551742B2 (priority 2007, dated 2013).

Where a chain is given by its changes, count along the chain named.

For one series, the system named is MetA. Briefly: In-vitro characterization of purified mutant and wild type MetA enzymes (assay of Lawrence, modified). The format is biochemical, E. coli. The method, then:
PCR was used to amplify and then clone the five metA mutant genes identified as pCL-A#10, pCL-A#11, pCL-A#32, pCL-A#37, and pCL-A#41, into the pET30a vector. All constructs were subjected to DNA sequence analysis to confirm the presence of mutations. The genes were cloned with a C-terminus His tag for enzyme purification. The enzymes were overexpressed, purified and the activity was measured in the presence of different levels of methionine and SAMe, as described by Lawrence, J. Bacteriol., 109:8-11, 1972. The only modifications to the assay were that multiple points were taken and that the reaction was quenched with guanidine.

In series [1] the test system is MetK. Kind of series: MetK mutants radioactive assay in vitro ([methyl-14C]methionine to SAMe). The format is biochemical, E. coli. As to conditions: 5 minute reaction time; C-terminal His tagged proteins unless untagged. As to the method:
The metK gene from E. coli (Accession number AP—003499 or BAE77005) was cloned and overexpressed with either an N-terminal or a C-terminal His tag in pET28b vector. Site directed mutagenesis was performed using the C-terminal His tagged metK clone to generate the desired mutants. Expression of the mutant MetK proteins was confirmed.
The MetK mutants were purified (using the C-terminal His tag) and assayed in vitro. The wild type C-terminal His-tagged MetK protein was used as a control. The mutants were assayed using a radioactive assay. The assay conditions were as follows: • Assay Mix: • 1.0 mL 0.5 M HEPES/KOH, pH 8.0 • 0.5 mL 1.0 M KCl • 0.2 mL 1.0 M MgCl2 • 1.0 mL 100 mM ATP (disodium salt, pH 8.0 with KOH) • 0.1 mL 50 mM methionine • 0.1 mL NEN [methyl-^14C]methionine • 6.6 mL H2O • 25 mM EDTA pH 8.0 stop for assays.
45 μl of assay mix was added to an Eppendorf tube and 5 μL of enzyme (normalized data shown in Table 13. The reaction was incubated at room temperature (or 25° C.) for a desired period (1 to 10 minutes). The reaction was stopped with the addition of 150 μL of 25 mM EDTA. 100 μL of the reaction was spotted onto a 2.5 cm diameter Whatman P-81 phosphocellulose filter circle (labeled in pencil). The filters were washed with 3 L of distilled water, air-dried and placed in scintillation vials with aquasol. The emissions were counted using a window that extends from ^14C to about 0. Assay efficiency and quench levels were determined by adding a known amount of counts of pure ^14C-SAM and processing through the whole procedure. Backgrounds are typically<100 cpm (total counts ca. 10^5 cpm per reaction).

For series [2], the system named is MetK. The note with it: literature reference; cited from earlier work.
Where [3] appears, read: control (no Met or SAM), U = formation of 1 μmole of CoA per minute at room temperature.

B1: w.t.: wild type E. coli MetA enzyme (homoserine succinyltransferase), C-terminus His tag, purified (protein, UniProt P07623 2-309, looked up)
Homoserine …: PIRVPDELPAVNFLREENVFVMTTSRASGQEIRPLKVLILNLMPKKIETENQFLRLLSNSPLQVDIQLLRIDSRESRNTPAEHLNNFYCNFEDIQDQNFDGLIVTGAPLGLVEFNDVAYWPQIKQVLEWSKDHVTSTLFVCWAVQAALNILYGIPKQTRTEKLSGVYEHHILHPHALLTRGFDDSFLAPHSRYADFPAALIRDYTDLEILAETEEGDAYLFASKDKRIAFVTGHPEYDAQTLAQEFFRDVEAGLDPDVPYNYFPHNDPQNTPRASWRSHGNLLFTNWLNYYVYQITPYDLRHMNPTLD
modifications: C-terminal His tag
notes: wild type E. coli MetA enzyme (homoserine succinyltransferase), C-terminus His tag, purified
As to B1, the “% of specific activity retention” value is reported as 100% in the series on MetA (control), 2.9% in the series with MetA (w/10 mM SAM) and 7.6% with MetA (w/ 100 mM Met). The “Specific activity (U/mg)” value in the series on MetA (setting [3]) amounted to 386 U/mg; in the series on MetA (w/10 mM SAM), 11 U/mg; in the series with MetA (w/ 100 mM Met), 29 U/mg.

B2: #11 (protein, listed as Escherichia coli)
chain: MPIRVPDELPAVNFLREENVFVMTTSRAPGQEIRPLKVLILNLMPKKIETENQFLRLLSNSPLQVDIQLLRIDSRESRNTPAEHLNNFYCNFEDIQDQNFDGLIVTGAPLGLVGFNDVAYWPQIKQVLEWSKDHVTSTLSVCWAVQAALNILYGIPKQTRTEKLSGVYEHHILHPHALLTRGFDDSFLAPHSRYADFPAALIRDYTDLEILAETEEGDAYLFASKDKRIAFVTGHPEYDAQTLAQEFFRDVEAGLDPDVPYNYFPHNDPQNTPRASWRSHGNLLFTNWLNYYVYQITPYDLRHMNPTLD
As to B2, the “% of specific activity retention” value in the series on MetA (control) turned out to be 100%; with MetA (w/10 mM SAM), 82%; with MetA (w/ 100 mM Met) it was 94%; in the series with MetA (w/ 300 mM Met) it was 56%; in the series on MetA (w/ 300 mM Met, listed as metA #11), 55%. Further, the “Specific activity (U/mg)” value was 479 U/mg with MetA (setting [3]), 395 U/mg with MetA (w/10 mM SAM), 451 U/mg in the series on MetA (w/ 100 mM Met) and 282 U/mg in the series with MetA (w/ 300 mM Met). Moreover, the “feed-back inhibition resistance compared to the wild type enzyme” value in the series on MetA (methionine and SAM inhibition) is reported as “most resistant”.

B3: Gly 77 Val (protein, UniProt P0A817 2-384, looked up, variant G77V)
S-adenosylmethionine synthase: AKHLFTSESVSEGHPDKIADQISDAVLDAILEQDPKARVACETYVKTGMVLVGGEITTSAWVDIEEITRNTVREIVYVHSDMGFDANSCAVLSAIGKQSPDINQGVDRADPLEQGAGDQGLMFGYATNETDVLMPAPITYAHRLVQRQAEVRKNGTLPWLRPDAKSQVTFQYDDGKIVGIDAVVLSTQHSEEIDQKSLQEAVMEEIIKPILPAEWLTSATKFFINPTGRFVIGGPMGDCGLTGRKIIVDTYGGMARHGGGAFSGKDPSKVDRSAAYAARYVAKNIVAAGLADRCEIQVSYAIGVAEPTSIMVETFGTEKVPSEQLTLLVREFFDLRPYGLIQMLDLLHPIYKETAAYGHFGREHFPWEKTDKAQLLRDAAGLK
For the molecule B3, the “Activity (CPM SAMe/ μg purified protein/min)” value in the series with MetK [1] is 6.9 CPM SAMe/ μg purified protein/min.

B4: Lys 245 Met (protein, UniProt P0A817 2-384, looked up, variant K245M)
S-adenosylmethionine synthase: B3 S-adenosylmethionine synthase with V76G, K245M
Regarding B4, in the series on MetK [1], the “Activity (CPM SAMe/ μg purified protein/min)” value is 2.5 CPM SAMe/ μg purified protein/min. Also, the “Expected Effect on SAMe synth: activity reduced / lower activity than WT” value with MetK [2] was 42,000 fold.

B5: Cys 90 Ser (protein, UniProt P0A817 2-384, looked up, variant C90S)
S-adenosylmethionine synthase: B3 S-adenosylmethionine synthase with V76G, C89S
Turning to B5, the “Activity (CPM SAMe/ μg purified protein/min)” value in the series with MetK [1] is 23.2 CPM SAMe/ μg purified protein/min. The “Expected Effect on SAMe synth: % of WT activity” value with MetK [2] was “Only 10% of WT”.

B6: Asp 16 Asn (protein, UniProt P0A817 2-384, looked up, variant D16N)
S-adenosylmethionine synthase: B3 S-adenosylmethionine synthase with D16N, V76G
B6: the “Activity (CPM SAMe/ μg purified protein/min)” value in the series with MetK [1] was 2.5 CPM SAMe/ μg purified protein/min. The “Expected Effect on SAMe synth: kcat reduction” value in the series with MetK [2] was “kcat reduction of ~ 103 fold”.

B7: WT Untagged: untagged wild type MetK protein, Markham lab (protein, UniProt P0A817 2-384, looked up)
S-adenosylmethionine synthase: B3 S-adenosylmethionine synthase with V76G
With B7, the “Activity (CPM SAMe/ μg purified protein/min)” value in the series with MetK [1] was 5600 CPM SAMe/ μg purified protein/min.

B8: His 14 Asn (protein, UniProt P0A817 2-384, looked up, variant H14N)
S-adenosylmethionine synthase: B3 S-adenosylmethionine synthase with H14N, V76G
With B8, the “Activity (CPM SAMe/ μg purified protein/min)” value with MetK [1] is recorded as 7.7 CPM SAMe/ μg purified protein/min. The “Expected Effect on SAMe synth: activity reduced / lower activity than WT” value in the series with MetK [2] is “Activity reduced ~ 104 fold”.

B9: WT control: wild type C-terminal His-tagged MetK protein used as a control (protein, UniProt P0A817 2-384, looked up)
S-adenosylmethionine synthase: B3 S-adenosylmethionine synthase with V76G
modifications: C-terminal His tag
Regarding B9, the “Activity (CPM SAMe/ μg purified protein/min)” value in the series with MetK [1] is 995.4 CPM SAMe/ μg purified protein/min.

B10: Asp 118 Asn (protein, UniProt P0A817 2-384, looked up, variant D118N)
S-adenosylmethionine synthase: B3 S-adenosylmethionine synthase with V76G, D118N
As to B10, the “Activity (CPM SAMe/ μg purified protein/min)” value in the series with MetK [1] is reported as 1.3 CPM SAMe/ μg purified protein/min. For the same molecule, the “Expected Effect on SAMe synth: kcat reduction” value in the series with MetK [2] is on record as “kcat reduction of ~ 103 fold”.

B11: Cys 90 Ala (protein, UniProt P0A817 2-384, looked up, variant C90A)
S-adenosylmethionine synthase: B3 S-adenosylmethionine synthase with V76G, C89A
On to B11, for which the “Activity (CPM SAMe/ μg purified protein/min)” value in the series with MetK [1] is given as “Same as WT”. Further, the “Expected Effect on SAMe synth: % of WT activity” value with MetK [2] is reported as “Only 10% of WT”.

B12: Asp 271 Ala (protein, UniProt P0A817 2-384, looked up, variant D271A)
S-adenosylmethionine synthase: B3 S-adenosylmethionine synthase with V76G, D271A
In the case of B12, the “Activity (CPM SAMe/ μg purified protein/min)” value in the series with MetK [1] is recorded as 0.4 (not duplicated) CPM SAMe/ μg purified protein/min. In addition, the “Expected Effect on SAMe synth: kcat reduction” value in the series on MetK [2] is recorded as “kcat reduction of ~ 103 fold”.

B13: Asp 238 Asn (protein, UniProt P0A817 2-384, looked up, variant D238N)
S-adenosylmethionine synthase: B3 S-adenosylmethionine synthase with V76G, D238N
Take B13: in the series with MetK [1], the “Activity (CPM SAMe/ μg purified protein/min)” value is recorded as 1.9 CPM SAMe/ μg purified protein/min. Moreover, the “Expected Effect on SAMe synth: kcat reduction” value with MetK [2] was “kcat reduction of ~ 103 fold”.
